The text below walks through data of article PMC12416549 (2024).

First the molecules themselves.
B1: A83K (designed binder)
chain: MTLQELLREEALRRAEAEAFRYALELLAEKFPEQKEYLLDLAEEIESQIRSLSGVDVEDVRKFLDKEWAWVKELLAEHPAELKEVEAARAARLAELRAEVEAKVAA
B2: A105D (designed binder)
chain: B1 chain with K83A, A105D
B3: S53Y (designed binder)
chain: B1 chain with S53Y, K83A
B4: D59T (designed binder)
chain: B1 chain with D59T, K83A
B5: V71I (designed binder)
chain: B1 chain with V71I, K83A
B6: L74D (designed binder)
chain: B1 chain with L74D, K83A
B7: L24F (designed binder)
chain: B1 chain with L24F, K83A
B8: L6N (designed binder)
chain: B1 chain with L6N, K83A
B9: E101K (designed binder)
chain: B1 chain with K83A, E101K
B10: V55L (designed binder)
chain: B1 chain with V55L, K83A
B11: A28N (designed binder)
chain: B1 chain with A28N, K83A
B12: L74P (designed binder)
chain: B1 chain with L74P, K83A
B13: V60Y (designed binder)
chain: B1 chain with V60Y, K83A
B14: R8Q (designed binder)
chain: B1 chain with R8Q, K83A
B15: L52A (designed binder)
chain: B1 chain with L52A, K83A
B16: A94Y (designed binder)
chain: B1 chain with K83A, A94Y
B17: R89Q (designed binder)
chain: B1 chain with K83A, R89Q
B18: L3M (designed binder)
chain: B1 chain with L3M, K83A
B19: V100I (designed binder)
chain: B1 chain with K83A, V100I
B20: K103F (designed binder)
chain: B1 chain with K83A, K103F
B21: T2Q (designed binder)
chain: B1 chain with T2Q, K83A
B22: L64G (designed binder)
chain: B1 chain with L64G, K83A
B23: A106Y (designed binder)
chain: B1 chain with K83A, A106Y
B24: L38P (designed binder)
chain: B1 chain with L38P, K83A
B25: R8C (designed binder)
chain: B1 chain with R8C, K83A
B26: A42Q (designed binder)
chain: B1 chain with A42Q, K83A
B27: Q48S (designed binder)
chain: B1 chain with Q48S, K83A
B28: A94V (designed binder)
chain: B1 chain with K83A, A94V
B29: T2D (designed binder)
chain: B1 chain with T2D, K83A
B30: E36G (designed binder)
chain: B1 chain with E36G, K83A
B31: E25A (designed binder)
chain: B1 chain with E25A, K83A
B32: G54P (designed binder)
chain: B1 chain with G54P, K83A
B33: R8P (designed binder)
chain: B1 chain with R8P, K83A
B34: V55Y (designed binder)
chain: B1 chain with V55Y, K83A
B35: A69E (designed binder)
chain: B1 chain with A69E, K83A
B36: E36N (designed binder)
chain: B1 chain with E36N, K83A
B37: E18H (designed binder)
chain: B1 chain with E18H, K83A
B38: T2F (designed binder)
chain: B1 chain with T2F, K83A
B39: S53I (designed binder)
chain: B1 chain with S53I, K83A
B40: A87K (designed binder)
chain: B1 chain with K83A, A87K
B41: H78P (designed binder)
chain: B1 chain with H78P, K83A
B42: E16P (designed binder)
chain: B1 chain with E16P, K83A
B43: E67V (designed binder)
chain: B1 chain with E67V, K83A
B44: K103W (designed binder)
chain: B1 chain with K83A, K103W
B45: E44A (designed binder)
chain: B1 chain with E44A, K83A
B46: G54A (designed binder)
chain: B1 chain with G54A, K83A
B47: E9L (designed binder)
chain: B1 chain with E9L, K83A
B48: E36P (designed binder)
chain: B1 chain with E36P, K83A
B49: E81W (designed binder)
chain: B1 chain with E81W, K83A
B50: H78S (designed binder)
chain: B1 chain with H78S, K83A
B51: S53H (designed binder)
chain: B1 chain with S53H, K83A
B52: K66T (designed binder)
chain: B1 chain with K66T, K83A
B53: E84F (designed binder)
chain: B1 chain with K83A, E84F
B54: L24P (designed binder)
chain: B1 chain with L24P, K83A
B55: R89N (designed binder)
chain: B1 chain with K83A, R89N

Where a chain is given by its changes, count along the chain named. Numbers in names are those of the source.

This assay has as its target T1, TNFR1 (Homo sapiens, UniProt P19438).
T1 chain: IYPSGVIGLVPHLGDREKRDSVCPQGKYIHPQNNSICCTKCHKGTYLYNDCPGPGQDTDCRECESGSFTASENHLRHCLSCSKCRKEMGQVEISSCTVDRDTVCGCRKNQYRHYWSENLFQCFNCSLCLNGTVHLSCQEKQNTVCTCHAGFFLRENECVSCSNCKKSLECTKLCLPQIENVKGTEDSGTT
The assay can be described thus: yeast display SC50.
Take B1: the “apparent Kd (screen)” value was determined as 0.539 nM. The figure for B2 is 0.718 nM; for B3 it is 6.43 nM; for B4 it is 0.446 nM. The figure for B5 is 0.539 nM. As for B6, the “apparent Kd (screen)” value came out at 3 nM. Turning to B7, the “apparent Kd (screen)” value is 0.653 nM. The figure for B8 is 22.2 nM; for B9 it is 0.653 nM; for B10 it is 0.653 nM.

As for B11, the “apparent Kd (screen)” value amounted to 12.5 nM.

For the molecule B12, the “apparent Kd (screen)” value came out at 13.8 nM. Consider B13, for which the “apparent Kd (screen)” value was 0.539 nM.

On to B14, for which the “apparent Kd (screen)” value came to 0.653 nM.

On to B15, for which the “apparent Kd (screen)” value was determined as 0.446 nM. With B16, the “apparent Kd (screen)” value stood at 0.593 nM.

B17: the “apparent Kd (screen)” value is 0.593 nM.

Regarding B18, the “apparent Kd (screen)” value turned out to be 2.73 nM. The value for B19 was 0.653 nM; that for B20 was 0.869 nM. The figure for B21 is 1.27 nM. The value for B22 was 1.69 nM. On to B23, for which the “apparent Kd (screen)” value was 0.79 nM. The value for B24 was 22.2 nM; that for B25 was 0.593 nM. The value for B26 was 2.05 nM. The value for B27 was 0.593 nM; that for B28 was 0.539 nM; that for B29 was 1.54 nM. As to B30, the “apparent Kd (screen)” value is 0.718 nM. The value for B31 was 0.405 nM.

Consider B32, for which the “apparent Kd (screen)” value is 12.5 nM. The value for B33 was 10.4 nM; that for B34 was 0.956 nM.

Turning to B35, the “apparent Kd (screen)” value came to 0.956 nM. The figure for B36 is 1.27 nM; for B37 it is 0.49 nM; for B38 it is 0.539 nM.

Regarding B39, the “apparent Kd (screen)” value was found to be 2.25 nM. The value for B40 was 0.49 nM. The figure for B41 is 1.69 nM. Turning to B42, the “apparent Kd (screen)” value came out at 9.41 nM. The figure for B43 is 20.2 nM; for B44 it is 0.718 nM.

As for B45, the “apparent Kd (screen)” value is 7.78 nM. On to B46, for which the “apparent Kd (screen)” value was determined as 1.4 nM. The value for B47 was 0.718 nM. The value for B48 was 0.49 nM. The figure for B49 is 0.539 nM.

For B50, the “apparent Kd (screen)” value was 0.79 nM.

As to B51, the “apparent Kd (screen)” value came to 0.653 nM. The value for B52 was 0.956 nM; that for B53 was 0.593 nM.

In the case of B54, the “apparent Kd (screen)” value worked out at 26.9 nM. The figure for B55 is 1.05 nM.
